{"source": "patent US20210261685A1", "about": "(Alector, published 2021)", "binders": {"B1": {"name": "MTK-24 (antibody, human IgG1, V domains shown)", "VH": "QVQLQQPGAELVKPGASVKLSCKASGYTFTSYWMHWVKQRPGQGLEWIGMIHPNINTNYNEKFKSKATLTVDISSSTAYMQLSSLTSEDSAVYYCAKRSPYSNYDWYFDVWGTGTTVTVSS", "VL": "DIQMTQSPASLSVSVGETVTITCRASENIYSNLAWYQQKQGKSPQLLVYAATNLADGVPSRFSGSGSGTQYSLKINSLQSEDFGSYYCQHFWGTPLTFGAGTKLELK"}, "B2": {"name": "MTK-06 (antibody, human IgG1, V domains shown)", "VH": "QIQLVQSGPELKKPGETVKISCKASGYTFTNYGMNWVKQAPGKGLKWMGWINTNTGEPTYAEEFKGRFAFSLETSASTAYLQINNLKNEDTATYFCARYYNYWYFDVWGAGTTVTVSS", "VL": "QIVLSQSPAILSASPGEKVTMTCRASSSVSYMHWYQQKPGSSPKPWIYATSNLASGVPARFSGSGSGTSYSLTISRVEAEDAATYYCQQWSSKPPTFGGGTKLEIK"}, "B3": {"name": "MTK-32 (antibody, human IgG1, V domains shown)", "VH": "QIQLVQSGPELKKPGETVKISCKASGYTFTSYGMSWVHQAPGKGLKWLGWINTYSGVPTYADDFRGRFAFSLDTSVSTASLEINNLQNEDTATYFCAREDNWAWFAYWGQGTLVTVST", "VL": "B2 VL with S26T, S30G, Q37R, K93N, P95R"}, "B4": {"name": "MTK-35 (antibody, human IgG1, V domains shown)", "VH": "QVLLQQSGPELVKPGASVQLSCKASDYTFTSYDIHWVKQRPGQGLEWIGWIYPRDGYTKYNEIFKGKATLTVDTSSTTAYMELHSLTSEDSAVYFCARAYYTNWYYFDYWGQGTTLTVSS", "VL": "EIVLTQSPTTMAASPGEKITITCRASSSISSHYLHWYQQKPGFSPKLLIYRTSNLASGVPARFSGSGSGTSYSLTIGTMEAEDVATYYCQQGSTIPLTFGAGTKLVLK"}, "B5": {"name": "MTK-16 (antibody, human IgG1, V domains shown)", "VH": "LIQLVQSGPELKKPGETVKISCKASGYTFTNHGMNWVKQDPGKGLKWMGWINTYTGEPTYADDFKGRFVFSMETSASAAFLQINNLKNEDTATYFCARKGVTAARYFDYWGQGTTLTVSS", "VL": "DIVMTQSPKFMSTSVGDRVSITCKASQNVRTAVAWYKKKPGQSPKALINLASNRHTGVPDRFTGSGSGTDFTLTISNVQSEDLADYFCLQHWNYPLTFGGGTKLEIK"}, "B6": {"name": "MTK-27 (antibody, human IgG1, V domains shown)", "VH": "EVQLQQSGTELVRPGASVKLSCTASGFNIKDDYMHWVQQRPEQGLEWIGWIDPENGNTEYASKFQGKATITADASSNTAYLQLSSLTSEDTAVYYCSTLFSNYFDYWGQGTTLTVSS", "VL": "B5 VL with P8Q, A32S, K37Q, K38Q, N49Y, Q79R, L96Y"}, "B7": {"name": "MTK-10 (antibody, human IgG1, V domains shown)", "VH": "QVTLKESGPGILQPSQTLSLTCSFSGFSLTTSGMGVGWIRQPSGKGLEWLAHIWSDDDKRSNPALKSRLTISQDSSTNQVFLKIASVDTADSATYYCSHLTPVREFAYWGPGTLVTVSE", "VL": "DIQMTQTTSSLSASLGDRVTISCSASQGISNYLNWFQQKPDGTVKLLIYYTSRLHSGVPSRFSGSGSGTDFSLTISNLEPEDIATYYCQQYTKLPYTFGGGTKLEIK"}, "B8": {"name": "MTK-28 (antibody, human IgG1, V domains shown)", "VH": "QIQLVQSGPELKKPGETVKISCKASGYTFTTYGMSWVKQAPGKGLKWMGWINTYSGVPTYADDFKGRFAFSLETSASTAYLQINTLKNEDTTTYFCARFLRYYYFDYWGQGTTLTVSS", "VL": "QIVLSQSPVILSASPGEKVTMTCRASSSVTYMHWYQQQPGSSPKPWIYATSNLASGVPARFSGSGSGTSYSLTISRVETEDAATYYCHQWSGNPTFGGGTKLEIN"}, "B9": {"name": "MTK-30 (antibody, human IgG1, V domains shown)", "VH": "QVQLQQPGTELVRPGASVKLSCKASGYTFTSYWMHWVKQRPGQGLEWIGNLNPNNGGTYYNEKFKSKATLTVDKSSSTAYMQLSSLTSEDSAVYYCARQILLYFDYWGQGTTLTVSS", "VL": "DVLMTQTPLSLPVSLGDQASISCRSSQSIVHSNGDTYLEWYLQKPGQSPKLLIYKVSNRFSGVPDRFSGSGSGTDFTLKISRVEAEDLGVYYCFQGSHVPWTFGGGTKLEIK"}, "B10": {"name": "MTK-31 (antibody, human IgG1, V domains shown)", "VH": "QIQLVQSGPELKKSGETVKISCKASGYTFTSYGMSWVKQAPGKGLKWMGWINTYSGVPTYADDFKGRFAFSLETSASTAYLQINNLKNEDTATYFCASLSYDGSLYHAMDYWGQGTSVTVSS", "VL": "B9 VL with L3S, C23S, S28T, D35N"}, "B11": {"name": "MTK-13 (antibody, human IgG1, V domains shown)", "VH": "DVQLQESGPGLVKPSQSLSLTCSVTGYSITSGYYWNWIRQFPGNKLEWMGNIDYDGSNKYNPSLKNRISITRDTSKNHFFLKLNSVTPEDTATYFCARDGGNYRSFAYWGQGTLVTVSA", "VL": "QIVLTQSPPIMSASPGEKVTITCSASSSVSYMYWFQQKPGTSPKLWIYSTFNLASGVPARFSGSGSGTSYSLTISRMEAEDVATYYCQQRSSYPFTFGSGTKLEIK"}, "B12": {"name": "MTK-26 (antibody, human IgG1, V domains shown)", "VH": "AVQFQESGPGLVKLSQSLSLTCSVTGYSITSGYYWDWIRQFPGNKLEWMGYISYDGSNNYNPSLKNRISITRDTSKNQFFLKLNSVTTEDTATYYCAREGGYYRSMDYWGQGTSVTVSS", "VL": "B11 VL with P9A, T22A, Y31F, Y33H, K44R, F51S, V82A"}}, "note": "Positions count from the first letter of the chain named."}
{"target": "T1, murine MerTK extracellular domain (ECD), recombinant (mouse, UniProt Q60805 19-497)", "T1 construct": "also called moMerTK; mouse MerTK; not shown: polyHis tag or TEVS/Thrombin/murine IgG2a Fc tag", "T1 sequence": "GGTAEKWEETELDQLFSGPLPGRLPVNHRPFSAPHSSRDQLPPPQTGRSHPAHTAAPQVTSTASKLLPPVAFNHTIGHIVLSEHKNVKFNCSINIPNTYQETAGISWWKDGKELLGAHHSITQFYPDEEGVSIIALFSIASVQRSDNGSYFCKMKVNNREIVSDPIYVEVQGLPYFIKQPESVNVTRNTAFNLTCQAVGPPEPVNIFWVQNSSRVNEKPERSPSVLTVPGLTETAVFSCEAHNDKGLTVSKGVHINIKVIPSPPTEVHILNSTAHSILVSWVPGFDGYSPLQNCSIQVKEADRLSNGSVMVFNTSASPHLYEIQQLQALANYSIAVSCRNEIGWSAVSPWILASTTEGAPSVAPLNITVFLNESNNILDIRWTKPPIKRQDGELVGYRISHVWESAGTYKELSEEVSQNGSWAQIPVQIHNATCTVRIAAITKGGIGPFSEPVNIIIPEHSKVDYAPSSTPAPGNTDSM", "experiment": "SPR, Carterra LSA, antibody immobilised", "procedure": "(§1) Binding kinetics of human anti-MerTK IgG1 LALAPS antibodies of the present disclosure to human, cyno, and murine MerTK were evaluated using a Carterra LSA instrument (Carterra, Salt Lake City, Utah). Briefly, anti-MerTK antibodies were prepared by diluting to 10 μg/ml in 10 mM Acetate, pH 4.25 (Carterra), at 300 μl/well. A HC200M sensor chip (Carterra) was activated using the single channel flow cell with a 7-minute injection of a 1:1:1 mixture of 100 mM MES pH 5.5, 100 mM sulfo-NHS, 400 mM EDC (all reconstituted in MES pH 5.5; 100 μl of each mixed in vial immediately before running assay). After switching to the multi-channel array flow cell, the antibodies were injected over the activated chip in a 96-spot array for 15 minutes. The remaining unconjugated active groups on the chip were then blocked by injecting 1M Ethanolamine pH 8.5 (Carterra) for 7 minutes using the single channel flow cell.\n(§2) After priming with running buffer (HBS-TE, Carterra) with 0.5 mg/ml BSA (Sigma), the immobilized anti-MerTK antibodies were tested for their ability to bind to several forms of recombinant MerTK extracellular domain, including human, cynomolgus, and mouse orthologs as described above. Estimates of affinity were generated by injecting each analyte over the entire antibody array using the single channel flow cell. MerTK analytes were diluted to 33.3, 100, and 300 nM in running buffer, and injected in serial from lowest to highest concentration without regeneration. Two buffer blanks were run between each series (one species per series). Data were processed and analyzed using NextGenKIT high-throughput kinetics analysis software (Carterra).\n(§3) The equilibrium dissociation constants (KD) were then calculated from the fitted association and dissociation rate constants (k-on and k-off) for anti-MerTK antibodies of the present disclosure. Binding kinetic analysis was also performed on anti-MerTK antibodies H1 (BioLegend, Clone ID: 590H11G1E3), H2 (R&D systems, Clone ID: 125518), M6 (WO2016/106221), and CDX AB2000-A7 hIgG1 (WO2019/084307).", "units": {"Kd": "nM"}}
{"binder": "B1", "Kd": 55}
{"binder": "B2", "binding result": "no binding (tested: 300 nM)"}
{"binder": "B3", "Kd": 186}
{"binder": "B4", "binding result": "no binding (tested: 300 nM)"}
{"binder": "B5", "binding result": "no binding (tested: 300 nM)"}
{"binder": "B6", "binding result": "no binding (tested: 300 nM)"}
{"binder": "B7", "binding result": "no binding (tested: 300 nM)"}
{"binder": "B8", "binding result": "no binding (tested: 300 nM)"}
{"binder": "B9", "Kd": 30}
{"binder": "B10", "Kd": 165}
{"binder": "B11", "binding result": "no binding (tested: 300 nM)"}
{"binder": "B12", "binding result": "no binding (tested: 300 nM)"}
{"target": "T2, human MerTK extracellular domain (ECD), recombinant (human, UniProt Q12866 21-505)", "T2 construct": "also called huMerTK; not shown: polyHis tag or TEVS/Thrombin/murine IgG2a Fc tag", "T2 sequence": "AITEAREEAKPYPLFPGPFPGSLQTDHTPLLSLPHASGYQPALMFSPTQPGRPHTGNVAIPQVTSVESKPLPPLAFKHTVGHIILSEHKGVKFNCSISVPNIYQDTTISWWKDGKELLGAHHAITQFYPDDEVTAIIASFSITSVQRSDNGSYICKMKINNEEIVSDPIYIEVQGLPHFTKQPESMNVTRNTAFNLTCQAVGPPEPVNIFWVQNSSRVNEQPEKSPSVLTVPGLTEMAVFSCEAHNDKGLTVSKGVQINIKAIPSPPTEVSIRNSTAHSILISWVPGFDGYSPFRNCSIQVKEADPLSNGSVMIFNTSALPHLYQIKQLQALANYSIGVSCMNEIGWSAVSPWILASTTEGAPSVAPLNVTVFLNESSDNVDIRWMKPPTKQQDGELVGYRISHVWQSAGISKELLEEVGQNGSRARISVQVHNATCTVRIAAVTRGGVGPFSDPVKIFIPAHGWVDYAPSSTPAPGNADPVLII", "experiment": "SPR, Carterra LSA, antibody immobilised", "procedure": "as §1, §2, §3", "units": {"Kd": "nM"}}
{"binder": "B1", "Kd": 41}
{"binder": "B2", "Kd": 18}
{"binder": "B3", "Kd": 59}
{"binder": "B4", "Kd": 14}
{"binder": "B5", "Kd": 1.4}
{"binder": "B6", "Kd": 71}
{"binder": "B7", "Kd": 2}
{"binder": "B8", "Kd": 4.1}
{"binder": "B9", "Kd": 23}
{"binder": "B10", "Kd": 81}
{"binder": "B11", "Kd": 37}
{"binder": "B12", "Kd": 30}
{"target": "T3, cyno MerTK extracellular domain (ECD), recombinant (cynomolgus monkey, UniProt Q12866 21-505 (human entry))", "T3 construct": "also called cynomolgus MerTK; not shown: polyHis tag or TEVS/Thrombin/murine IgG2a Fc tag", "T3 chain": "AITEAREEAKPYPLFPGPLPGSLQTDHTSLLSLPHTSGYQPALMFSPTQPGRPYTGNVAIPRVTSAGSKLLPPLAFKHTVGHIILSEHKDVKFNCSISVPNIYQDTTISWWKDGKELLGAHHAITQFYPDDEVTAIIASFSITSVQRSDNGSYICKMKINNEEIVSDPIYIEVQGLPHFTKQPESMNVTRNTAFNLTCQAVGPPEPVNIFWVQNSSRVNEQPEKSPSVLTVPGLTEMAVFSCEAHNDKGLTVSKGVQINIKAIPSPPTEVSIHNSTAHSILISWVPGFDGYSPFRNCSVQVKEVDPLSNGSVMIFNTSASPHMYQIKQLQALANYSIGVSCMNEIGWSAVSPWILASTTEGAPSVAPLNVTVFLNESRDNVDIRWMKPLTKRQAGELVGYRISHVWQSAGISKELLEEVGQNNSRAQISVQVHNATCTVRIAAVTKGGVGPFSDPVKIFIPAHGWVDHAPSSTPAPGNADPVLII", "experiment": "SPR, Carterra LSA, antibody immobilised", "procedure": "as §1, §2, §3", "units": {"Kd": "nM"}}
{"binder": "B1", "Kd": 44}
{"binder": "B2", "Kd": 17}
{"binder": "B3", "Kd": 107}
{"binder": "B4", "Kd": 13}
{"binder": "B5", "Kd": 1.6}
{"binder": "B6", "Kd": 71}
{"binder": "B7", "Kd": 1.9}
{"binder": "B8", "Kd": 4.5}
{"binder": "B9", "Kd": 24}
{"binder": "B10", "Kd": 91}
{"binder": "B11", "Kd": 39}
{"binder": "B12", "Kd": 30}
